This passage reports Kd and IC50 results from the Immune Epitope Database (IEDB).

The target in one assay is HLA-B*15:09. The assay can be described thus: IEDB peptide-MHC binding, purified MHC/direct/fluorescence; filed as Kd, often an IC50 or EC50 that approximates it; ≥ and ≤ were set here for values at or beyond the usual limits of such assays.
For a further assay, the target named is HLA-B*39:01. Described as above. Conditions: source organism: Yersinia enterocolitica subsp. enterocolitica 8081.
The target of a further assay is HLA-C*03:03. The assay is described as above.
Assay [1] deals with HLA-A*02:01. Briefly: IEDB peptide-MHC binding, purified MHC/competitive/radioactivity; ≥ and ≤ were set here for values at or beyond the usual limits of such assays. Conditions: source organism: Hepatitis B virus.
For the next assay, the target named is HLA-A*01:01. The assay can be described thus: IEDB peptide-MHC binding, purified MHC/direct/fluorescence; filed as Kd, often an IC50 or EC50 that approximates it; ≥ and ≤ were set here for values at or beyond the usual limits of such assays.
For the next assay, the target named is HLA-A*02:19. Described as above. As to conditions: source organism: Limestone Canyon virus.
For the next assay, the target named is HLA-A*03:01. Described as above.
Another assay concerns the target HLA-B*07:02. Described as above.
A further assay addresses HLA-B*08:01. The description is as above.
For another assay, the target named is HLA-B*15:01. The assay is described as above.
In another assay the target is HLA-B*18:01. Described as above.
Another assay concerns the target HLA-B*40:01. The assay is described as above.
In a further assay the target is HLA-B*44:02. The assay is described as above.
A further assay has as its target HLA-B*46:01. Described as above.
The target in another assay is HLA-B*48:01. Described as above.
In the next assay the target is HLA-B*57:01. Described as above.
A further assay deals with HLA-B*58:01. Described as above.
For a further assay, the target named is HLA-C*06:02. Described as above. Conditions: source organism: Orthohantavirus sinnombreense.
The target of assay [2] is HLA-A*26:01. Briefly: IEDB peptide-MHC binding, purified MHC/competitive/fluorescence; filed as Kd, often an IC50 or EC50 that approximates it; ≥ and ≤ were set here for values at or beyond the usual limits of such assays. As to conditions: source organism: Orthohantavirus sinnombreense.
Assay [3] has as its target HLA-B*15:17. The description is as above. Conditions: source organism: Orthohantavirus sinnombreense.
Assay [4] concerns the target HLA-A*02:01. Briefly: IEDB peptide-MHC binding, purified MHC/direct/fluorescence; filed as Kd, often an IC50 or EC50 that approximates it; ≥ and ≤ were set here for values at or beyond the usual limits of such assays.
Another assay has as its target HLA-A*11:01. The assay is described as above.
Assay [5] addresses HLA-A*24:02. The description is as above.
Assay [6] concerns the target HLA-A*26:01. The assay is described as above.
The next assay has as its target HLA-A*31:01. The assay is described as above.
Another assay concerns the target HLA-A*69:01. The assay is described as above.
Another assay addresses HLA-B*27:05. Described as above.
The next assay deals with HLA-B*08:02. The assay is described as above. As to conditions: source organism: Salmonella enterica subsp. enterica serovar Typhimurium str. LT2.
A further assay has as its target HLA-B*08:03. Described as above. As to conditions: source organism: Salmonella enterica subsp. enterica serovar Typhimurium str. LT2.
In assay [7] the target is HLA-B*15:17. Described as above. As to conditions: source organism: Salmonella enterica.
In the next assay the target is HLA-A*68:02. Briefly: IEDB peptide-MHC binding, purified MHC/competitive/fluorescence; filed as Kd, often an IC50 or EC50 that approximates it; ≥ and ≤ were set here for values at or beyond the usual limits of such assays. Conditions: source organism: Salmonella enterica subsp. enterica serovar Typhi.
In another assay the target is HLA-C*12:03. The assay can be described thus: IEDB peptide-MHC binding, purified MHC/direct/fluorescence; filed as Kd, often an IC50 or EC50 that approximates it; ≥ and ≤ were set here for values at or beyond the usual limits of such assays.
The target of another assay is HLA-C*15:02. The assay is described as above. Conditions: source organism: Mammarenavirus choriomeningitidis.
Another assay concerns the target HLA-A*23:01. Briefly: IEDB peptide-MHC binding, purified MHC/competitive/radioactivity; filed as Kd, often an IC50 or EC50 that approximates it; ≥ and ≤ were set here for values at or beyond the usual limits of such assays. Conditions: source organism: Lassa virus Josiah.
The target in assay [8] is HLA-A*24:02. Described as above. As to conditions: source organism: Lassa virus Josiah.
For another assay, the target named is HLA-A*29:02. The description is as above. Conditions: source organism: Lassa virus Josiah.
Where [9] appears, read: source organism: Orthohantavirus sinnombreense.
[10] abbreviates: source organism: Vibrio cholerae.
[11] abbreviates: source organism: Vibrio cholerae RC385.
Setting [12] is: source organism: Influenza A virus (A/Turkey/MO/24093/99(H1N2)).
[13] abbreviates: source organism: Influenza A virus (A/Puerto Rico/8/34/Mount Sinai(H1N1)).
Setting [14] is: source organism: Influenza A virus(A/swine/Henan/5/2004(H9N2)).
Setting [15] is: source organism: Salmonella enterica.
The mark [16] stands for this setting: source organism: Mammarenavirus lassaense.
[17] abbreviates: source organism: Influenza A virus (A/Wisconsin/4755/1994(H1N1)).
Setting [18] is: source organism: Mycobacterium tuberculosis variant bovis BCG str. Pasteur 1173P2.

pIC50, pKd: −log10 of the molar value.

Take FHYQDPFPL: the figures for the pKd with HLA-B*15:09 (source organism: Yersinia enterocolitica subsp. enterocolitica 8081), in the assay with HLA-B*39:01 and with HLA-C*03:03 (source organism: Yersinia pestis Nepal516) were not below 9.00, not below 9.00 and 5.86, respectively.

With FLPNDFFPSA, the pIC50 in the assay with HLA-A*02:01 [1] is 8.68.

In the case of FRYKSRCYV, the pKd with HLA-A*01:01 (setting [9]), with HLA-A*02:19, in the assay with HLA-A*03:01 (setting [9]), with HLA-B*07:02 (setting [9]), with HLA-B*08:01 (setting [9]) and with HLA-B*15:01 (setting [9]) was not above 4.70 throughout. In addition, the pKd with HLA-B*18:01 (setting [9]), with HLA-B*40:01 (setting [9]), with HLA-B*44:02 (setting [9]), with HLA-B*46:01 (setting [9]), with HLA-B*48:01 (setting [9]) and with HLA-B*57:01 (setting [9]) was not above 4.70 in each case. Moreover, the pKd was not above 4.70 in the assay with HLA-B*58:01 (setting [9]), 8.15 with HLA-C*06:02, not above 4.70 with HLA-A*26:01 [2] and not above 4.70 with HLA-B*15:17 [3].

For the sequence GLRWHVRAF, the pKd with HLA-A*01:01 (setting [10]), in the assay with HLA-A*02:01 [4] (setting [10]), in the assay with HLA-A*03:01 (setting [10]), with HLA-A*11:01 (setting [10]), with HLA-A*24:02 [5] (setting [10]) and with HLA-A*26:01 [6] (setting [11]) was not above 4.70 in each case. Moreover, the pKd with HLA-A*31:01 (setting [10]) was not above 4.70; in the assay with HLA-A*69:01 (setting [10]) it was not above 4.70; with HLA-B*07:02 (setting [10]), 6.39; with HLA-B*15:01 (setting [10]), 7.10; with HLA-B*15:09 (setting [11]), not above 4.70; with HLA-B*27:05 (setting [10]) it was not above 4.70. Besides, the pKd with HLA-B*40:01 (setting [10]), in the assay with HLA-B*44:02 (setting [10]) and in the assay with HLA-B*58:01 (setting [10]) was not above 4.70 each time.

Consider GMQIRGFVY, for which the pKd is not above 4.70 with HLA-A*01:01 (setting [12]); not above 4.70 with HLA-A*02:01 [4] (setting [12]); 5.95 with HLA-A*03:01 (setting [13]); not above 4.70 in the assay with HLA-A*24:02 [5] (setting [12]); not above 4.70 with HLA-A*26:01 [6] (setting [14]); not above 4.70 in the assay with HLA-A*69:01 (setting [12]). Further, the pKd with HLA-B*07:02 (setting [12]) was not above 4.70; with HLA-B*08:01 (setting [12]), not above 4.70; in the assay with HLA-B*15:01 (setting [13]) it was 6.59; with HLA-B*15:09 (setting [14]) it was not above 4.70; with HLA-B*27:05 (setting [12]), not above 4.70; with HLA-B*40:01 (setting [12]), not above 4.70. Also, the pKd with HLA-B*44:02 (setting [12]) is not above 4.70; with HLA-B*58:01 (setting [12]), 5.32.

For the sequence NVHRSQFAQ, the pKd in the assay with HLA-A*01:01 (setting [15]), in the assay with HLA-A*02:01 [4] (setting [15]), with HLA-A*03:01 (setting [15]), with HLA-A*11:01 (setting [15]), with HLA-A*31:01 (setting [15]) and in the assay with HLA-B*07:02 (setting [15]) was not above 4.70 each time. For the same sequence, the negative-log Kd (pKd) with HLA-B*08:01 (source organism: Salmonella enterica subsp. enterica serovar Typhimurium str. LT2), with HLA-B*08:02, with HLA-B*08:03, in the assay with HLA-B*15:01 (setting [15]), with HLA-B*15:17 [7] and in the assay with HLA-B*18:01 (setting [15]) was not above 4.70 in each case. For the same sequence, the pKd with HLA-B*27:05 (setting [15]), with HLA-B*40:01 (setting [15]), with HLA-B*46:01 (setting [15]), with HLA-B*48:01 (setting [15]), in the assay with HLA-B*57:01 (setting [15]) and in the assay with HLA-B*58:01 (setting [15]) was not above 4.70 each time. In the assay with HLA-A*68:02, this sequence showed a pKd not above 4.70.

In the assay with HLA-C*12:03 (source organism: Leishmania major strain Friedlin), VATVNAVTV showed a pKd of 7.74.

Regarding YLISIFLHL, the pKd was 7.09 in the assay with HLA-A*02:01 [4] (setting [16]); 6.10 in the assay with HLA-A*69:01 (setting [16]); not above 4.70 with HLA-C*15:02; 9.37 with HLA-A*23:01; not above 4.17 with HLA-A*24:02 [8]; 7.00 with HLA-A*29:02.

For YRYTYRCHR, the pKd with HLA-A*01:01 (setting [17]), with HLA-A*02:01 [4] (setting [17]), with HLA-A*03:01 (setting [17]), in the assay with HLA-A*11:01 (setting [17]), in the assay with HLA-A*24:02 [5] (setting [17]) and with HLA-A*69:01 (setting [17]) was not above 4.70 in each case. Further, the pKd with HLA-B*07:02 (setting [17]) is not above 4.70; with HLA-B*08:01 (setting [17]) it was not above 4.70; in the assay with HLA-B*15:01 (setting [17]), not above 4.70; with HLA-B*15:09 (source organism: Influenza A virus(A/swine/Shandong/fZC/2003(H9N2))), not above 4.70; in the assay with HLA-B*27:05 (setting [13]) it was 6.57; with HLA-B*40:01 (setting [17]), not above 4.70. For the same sequence, the results for the pKd in the assay with HLA-B*44:02 (setting [17]), in the assay with HLA-B*46:01 (setting [17]) and with HLA-B*58:01 (setting [17]) were not above 4.70, not above 4.70 and 6.23, respectively.

With YVIEPAAGL, the pKd with HLA-C*03:03 (setting [18]) was not below 9.00; in the assay with HLA-C*12:03 (setting [18]), 7.64.

The term pKd denotes the negative decadic logarithm of the Kd, by convention in mol/L. What is called pIC50 is the IC50 on a negative log10 scale, so that one unit is a factor of ten.
